Assay [1] deals with T1, P6SC2R.
T1 chain: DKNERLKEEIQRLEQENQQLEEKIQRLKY
The assay is described as follows: two-hybrid library CCmax.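 Note: natural log of median RNA to DNA barcode read ratio; higher means stronger binding.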

The target of assay [2] is T1, P6SC2R. The assay is described as follows: two-hybrid library CCNG1.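 Note: natural log of median RNA to DNA barcode read ratio; higher means stronger binding.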
The next assay deals with T2, Core_NINN-es_KKEE.
T2 chain: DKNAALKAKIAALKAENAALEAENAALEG
The assay is described as follows: two-hybrid library CCmax.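 Note: natural log of median RNA to DNA barcode read ratio; higher means stronger binding.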 The settings on record: mean of both orientations.

The target of the next assay is T3, Core_NNNI-es_KEKK.
T3 chain: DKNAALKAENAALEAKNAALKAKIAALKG
As to the kind of experiment: two-hybrid library CCmax.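 Note: natural log of median RNA to DNA barcode read ratio; higher means stronger binding.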 As to conditions: mean of both orientations.

The target of the next assay is T4, O2.
T4 chain: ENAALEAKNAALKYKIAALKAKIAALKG
As to the kind of experiment: two-hybrid library CC0.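 Note: natural log of median RNA to DNA barcode read ratio; higher means stronger binding.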 The settings on record: mean of both orientations.

Another assay addresses T5, O16.
T5 chain: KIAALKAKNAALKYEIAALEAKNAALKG
The assay is described as follows: two-hybrid library CC0.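 Note: natural log of median RNA to DNA barcode read ratio; higher means stronger binding.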 As to conditions: mean of both orientations.

A further assay has as its target T6, O5.
T6 chain: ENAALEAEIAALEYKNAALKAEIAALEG
The assay is described as follows: two-hybrid library CC0. The settings on record: mean of both orientations.

The target of another assay is T7, O14.
T7 chain: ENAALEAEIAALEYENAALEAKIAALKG
The assay is described as follows: two-hybrid library CC0. As to conditions: mean of both orientations.

The next assay deals with T8, O3.
T8 chain: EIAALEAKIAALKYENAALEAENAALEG
The assay is described as follows: two-hybrid library CC0. The settings on record: mean of both orientations.

Another assay addresses T9, O11.
T9 chain: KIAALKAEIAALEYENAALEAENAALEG
The assay is described as follows: two-hybrid library CC0. As to conditions: mean of both orientations.

Another assay deals with T10, O6.
T10 chain: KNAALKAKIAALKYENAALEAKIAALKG
The assay is described as follows: two-hybrid library CC0. The settings on record: mean of both orientations.

The target of another assay is T11, O12.
T11 chain: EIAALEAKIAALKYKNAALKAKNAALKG
As to the kind of experiment: two-hybrid library CC0. As to conditions: mean of both orientations.

A further assay concerns the target T12, O7.
T12 chain: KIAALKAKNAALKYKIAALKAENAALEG
The assay is described as follows: two-hybrid library CC0. The settings on record: mean of both orientations.

In a further assay the target is T13, O10.
T13 chain: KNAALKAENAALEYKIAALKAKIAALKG
As to the kind of experiment: two-hybrid library CC0. As to conditions: mean of both orientations.

For the next assay, the target named is T14, O1.
T14 chain: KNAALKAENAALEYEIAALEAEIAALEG
As to the kind of experiment: two-hybrid library CC0. As to conditions: mean of both orientations.

The next assay deals with T15, O4.
T15 chain: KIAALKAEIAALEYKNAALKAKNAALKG
As to the kind of experiment: two-hybrid library CC0. As to conditions: mean of both orientations.

Another assay has as its target T16, O8.
T16 chain: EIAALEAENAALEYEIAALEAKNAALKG
The assay is described as follows: two-hybrid library CC0. The settings on record: mean of both orientations.

Another assay addresses T17, O13.
T17 chain: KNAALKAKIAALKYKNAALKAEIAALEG
As to the kind of experiment: two-hybrid library CC0. As to conditions: mean of both orientations.

In a further assay the target is T18, O9.
T18 chain: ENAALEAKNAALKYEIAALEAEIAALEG
The assay is described as follows: two-hybrid library CC0. As to conditions: mean of both orientations.

Another assay addresses T19, O15.
T19 chain: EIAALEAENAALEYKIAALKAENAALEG
The assay is described as follows: two-hybrid library CC0. As to conditions: mean of both orientations.

The values below come from publication PMC10397247.

In the case of DENSQLEEKISQLKQKNSRLKEEIQRLEY [P5SC1Q], the interaction score with P6SC2R [1] was found to be 1.06; in the assay with P6SC2R [2], 1.2.

In the case of DENAALEAEIAALEAKNAALKAKNAALKG [Core_NINN-es_EEKK], the interaction score with Core_NINN-es_KKEE was 1.6.

DENAALEAKNAALKAENAALEAEIAALEG [Core_NNNI-es_EKEE] yielded an interaction score with Core_NNNI-es_KEKK of 2.11.

As to KNAALKAENAALEYEIAALEAEIAALEG [O1], the interaction score in the assay with O2 is 1.37; with O16, -2.65; in the assay with O5, -2.77; in the assay with O14 it was -2.71; with O3 it was -2.76; in the assay with O11, -2.7. Further, the interaction score is -2.76 in the assay with O6; -2.64 in the assay with O12; -2.69 with O7; -0.97 with O10; -2.74 in the assay with O1; -2.68 in the assay with O4. The interaction score with O8 is -2.67; with O13, -2.57; in the assay with O9, -2.49; with O15 it was -2.7.
